Tests used:
[1] = Radiochemical stability of radiometal complex in saline, radio-iTLC; type: physicochemical; settings: for radiochemical purity of progeny: progeny of 37 MBq mL^-1 [^212Pb]Pb-PSC-PEG-T, 24 h in saline at room temperature; for radiochemical purity: single species, 7.4 MBq mL^-1, n = 2
Method: (§1) Using [^203Pb]Pb-PSC-PEG-T surrogate, radiochemical stability of [^203Pb]Pb-PSC-PEG-T in saline was monitored for 72 h. Similarly, single species of [^212Bi]Bi-PSC-PEG-T in saline were also monitored for 5 h (five half-lives of ^212Bi). [^203Pb]Pb-PSC-PEG-T and [^212Bi]Bi-PSC-PEG-T were radiolabeled and purified on Sep-Pak® C18 SPE columns as previously described. Next, 7.4 MBq mL^−1 of purified [^203Pb]Pb-PSC-PEG-T and [^212Bi]Bi-PSC-PEG-T were stored in saline supplemented with 5% EtOH and 1 mg mL^−1 sodium ascorbate for 72 h and 5 h, respectively, followed by analysis of radiochemical purity by radio-iTLC method. Then, radiochemical stability of [^212Pb]Pb-PSC-PEG-T and progeny [^212Bi]Bi-PSC-PEG-T were determined by radio-iTLC after storage of 37 MBq mL^−1 radiolabeled [^212Pb]Pb-PSC-PEG-T in saline for 24 h, and further confirmed by radio-HPLC analysis. In human serum, radiochemical stability of [^212Pb]Pb-PSC-PEG-T and progeny [^212Bi]Bi-PSC-PEG-T were determined after incubation of 3.7 MBq [^212Pb]Pb-PSC-PEG-T in 1 mL human serum at 37 °C for 24 h. In addition, metabolic stability of Pb-PSC-PEG-T radiopeptide in serum was determined by radio-HPLC after incubating [^203Pb]Pb-PSC-PEG-T surrogate in human serum for 55 h (five half-lives of ^212Pb). Following the incubation, serum protein was precipitated in ice-cold methanol (1:1.5 v/v) for 10 min, followed by centrifugation at 10,000× g for 10 min. The supernatant was collected and analyzed on radio-HPLC.
In radio-iTLC analysis, 0.1 M NaOAc with 1 mM DTPA was used as mobile phase for ^203Pb, ^212Pb, ^212Bi. Citric acid (0.1 M) was used as mobile phase for ^68Ga. Upon radio-iTLC analysis, 2 µL aliquot sample was spotted on the radio-iTLC strips (2 × 10 cm) and developed in the mobile phase. Radioactivity of ^203Pb and ^212Pb was measured on NaI(Tl) gamma spectroscope using 279 keV and 238 keV gamma peaks, respectively. Radioactivity of ^212Bi on radio-iTLC was measured on the Ludlum Model 3030 α-particle counter. Radio-HPLC analysis was conducted on Agilent 1260 (Agilent, Santa Clara, CA, USA). Binary mobile phases were applied to run 5–60% phase B (acetonitrile) over phase A (0.1% TFA in water) over 10 min on ZORBAX RR Eclipse XDB-C18 column (4.6 × 150 mm, 5 µm). Radioactivity of ^203Pb was measured on flow-through 105S-1 single channel radiation detector (Corroll & Ramsey, Fort Collins, CO, USA). To measure ^212Pb and ^212Bi activity on radio-HPLC, eluate was collected every 10 s on a HPLC fraction collector. Radioactivity of ^212Pb and ^212Bi in each collected eluate was measured on Cobra II automated gamma counter using 238 keV and 583 keV gamma peaks immediately after collection.

[2] = system: SSTR2-positive AR42J xenografts; assay: in vivo; parameters: species or system mice; settings: female, athymic nude, mouse, iv, 74 kBq, 1 h
Method: (§2) Biodistribution of [^212Pb]Pb-PSC-PEG-T and progeny ^212Bi^3+ was determined in two animal models, including female naïve CD-1Elite mice and athymic mice bearing AR42J tumor xenografts. SSTR2-positve AR42J cells were cultured in 10% Minimum Essential Medium (MEM) supplemented with 10% fetal bovine serum (FBS), 100 units mL^−1 penicillin, and 100 units mL^−1 streptomycin 37 °C in a humidified atmosphere (5% CO2). All animal studies were performed in accordance with the Guide for the Care and Use of Laboratory Animals, according to protocols approved by the University of Iowa Animal Care and Use Committee (protocol#1122453 approved on 16 February 2022). Xenograft of AR42J tumor was developed by subcutaneous (s.c.) injection of 1 × 10^6 cells at the left shoulder of female athymic nude mice. [^212Pb]Pb-PSC-PEG-T was radiolabeled and purified as described above, and kept at room temperature away from light for 3 h before injection, to allow progeny ^212Bi to approach equilibrium before injection. Upon assay, 74 kBq [^212Pb]Pb-PSC-PEG-T (peptide mass = 5–10 pmole) were injected via tail vein (n = 2–3). Animals were euthanized at designated time points (1, 5, 24 h for naïve CD-1 mice; 1, 4 h for AR42J-bearing mice). Organs of interest and tumors were collected, rinsed, and weighed. Radioactivity of ^212Pb and ^212Bi in each sample was measured on an automated gamma counter by 238 keV and 583 keV gamma peaks, respectively. ^212Bi was purified from the generator eluate on RE2 resin and collected in pH = 6 sodium acetate as described above. Biodistribution of free ^212Bi in normal organs was determined at 2 h post injection of 74 kBq ^212Bi in naïve female CD-1 Elite mice (n = 3). Radioactivity in samples was decay corrected and data were expressed as percent injected dose per gram of tissue (%ID/g). SPECT imaging of [^203Pb]Pb-PSC-PEG-T and [^212Pb]Pb-PSC-PEG-T in female athymic nude mice bearing AR42J xenograft (n = 2) was conducted on Bioemtech Gamma-Eye Imaging system (Bioemtech, Athens, Greece) with 30–500 keV dynamic range and 1.9 mm spatial resolution. Whole body 2D-SPECT imaging of [^203Pb]Pb-PSC-PEG-T and [^212Pb]Pb-PSC-PEG-T were collected at 3 h and 24 h (n = 2) post injection of 1.8 MBq [^203Pb]Pb-PSC-PEG-T (52 MBq nmole^−1) and 3.7 MBq [^212Pb]Pb-PSC-PEG-T (20 MBq nmole^−1). SPECT images were generated by acquiring ten 30 s projections. Imaging data were reconstructed and normalized to percent of injected dose (%ID) in tumor and kidneys based on region of interest (ROI) analysis on VISUAL-Eyes software (Bioemtech, Athens, Greece). Animals were euthanized after conclusion of the study at 24 h post injection. Tumor xenografts and organs of interest were collected and weighed. Radioactivity of ^203Pb or ^212Pb was determined on automated gamma counter and normalized to %ID/g.

[3] = In vivo biodistribution in naïve tumor-free CD-1 Elite mice; settings: female, mouse, iv, 74 kBq
Method: as §2

[4] = Stability of radiopeptide in saline, radio-HPLC; type: physicochemical; settings: 24 h storage in saline, C18, fractions counted on gamma counter
Method: as §1, with “Following the incubation, serum protein was precipitated in ice-cold methanol (1:1.5 v/v) for 10 min, followed by centrifugation at 10,000× g for 10 min.” left out, “radio-HPLC. […]” for “radio-HPLC.”

[5] = TCMC chelator in an anti-CD37 radioimmunoconjugate; cited from earlier work
Text: Potential ambiguity in these predictions arises due to the nature of the ^212Pb decay series. The decay of ^212Pb to ^212Bi might lead to a decoupling of the progeny ^212Bi from the chelator, adding uncertainty to the biodistribution of radioactivity, especially the α-emitters (i.e., ^212Bi, ^212Po). Using particle and heavy ion transport code system (PHITS) modeling, we have shown that α-particles contribute to more than 90% of dose deposition in 10 µm diameter single cells and 1 cm diameter micro-metastasis, while the dose from β-particles becomes more significant ...

in vivo = assay: in vivo; parameters: species or system mice; settings: female, athymic nude, mouse, total radioactivity; for tissue uptake at 1 h: iv, 74 kBq
Method: as §2

[6] = total radioactivity, accumulation in kidneys
[7] = total radioactivity, accumulation in pancreas

SMILES: C[C@@H](O)[C@@H]1NC(=O)[C@H](CCCCN)NC(=O)[C@@H](Cc2c[nH]c3ccccc23)NC(=O)[C@H](Cc2ccc(O)cc2)NC(=O)[C@@H](NC(=O)[C@@H](Cc2ccccc2)NC(=O)CCOCCOCCNC(=O)CN2CCN(CC(=O)O)CCN(CC(N)=O)CCN(CC(=O)O)CC2)CSSC[C@@H](C(=O)N[C@H](CO)[C@@H](C)O)NC1=O [[^212Bi]Bi-PSC-PEG-T] [metal not drawn]
- radiochemical purity of progeny ([1]; 1 µM PSC-PEG-T): 91.8%
- radiochemical purity of progeny ([1]; 3 µM PSC-PEG-T): 94.8%
- radiochemical purity of progeny ([1]; 5 µM PSC-PEG-T): 97.1%
- radiochemical purity ([1]; 1 h incubation in saline (5% EtOH, 1 mg mL^-1 sodium ascorbate), 1 µM PSC-PEG-T precursor): 94.1%
- radiochemical purity ([1]; 2 h incubation in saline (5% EtOH, 1 mg mL^-1 sodium ascorbate), 1 µM PSC-PEG-T precursor): 96.1%
- radiochemical purity ([1]; 3 h incubation in saline (5% EtOH, 1 mg mL^-1 sodium ascorbate), 1 µM PSC-PEG-T precursor): 92.4%
- radiochemical purity ([1]; 5 h incubation in saline (5% EtOH, 1 mg mL^-1 sodium ascorbate), 1 µM PSC-PEG-T precursor): 92.3%
- radiochemical purity ([1]; 5 h incubation in saline (5% EtOH, 1 mg mL^-1 sodium ascorbate), 5 µM PSC-PEG-T precursor): > 98%
- accumulation in adrenal glands [2]: 8.1 %ID/g
- accumulation in liver [2]: 2.1 %ID/g
- accumulation in spleen [2]: 1.4 %ID/g
- accumulation in kidneys ([3]; 1 h): 45.9 ± 3.7 %ID/g
- accumulation in pancreas ([3]; 1 h): 7.3 %ID/g
- activity remained in blood ([3]; 1 h): less than 0.2 %ID/g
- accumulation in kidneys ([3]; 5 h): 29.8 %ID/g
- accumulation in pancreas ([3]; 5 h): 3.5 %ID/g
- residual activity in kidneys ([3]; 24 h): 3.1 ± 1.4 %ID/g
- radiochemical purity (radiometal remained incorporated as radiopeptide) [4]: > 95%

SMILES: NC(=O)CN1CCN(CC(N)=O)CCN(CC(N)=O)CCN(CC(N)=O)CC1 [TCMC, 1,4,7,10-Tetrakis(carbamoylmethyl)-1,4,7,10-tetraazacyclododecane]
- ^212Bi^3+ ejected from chelator [5]: 16%

SMILES: C[C@@H](O)[C@@H]1NC(=O)[C@H](CCCCN)NC(=O)[C@@H](Cc2c[nH]c3ccccc23)NC(=O)[C@H](Cc2ccc(O)cc2)NC(=O)[C@@H](NC(=O)[C@@H](Cc2ccccc2)NC(=O)CCOCCOCCNC(=O)CN2CCN(CC(=O)O)CCN(CC(N)=O)CCN(CC(=O)O)CC2)CSSC[C@@H](C(=O)N[C@H](CO)[C@@H](C)O)NC1=O [[^203Pb]Pb-PSC-PEG-T] [metal not drawn]
- free ^203Pb ([1]; 72 h storage in saline with 5% EtOH and 1 mg mL^-1 sodium ascorbate, 7.4 MBq mL^-1, 1 and 5 µM precursor, n = 2): less than 1%
- ^203Pb remained in PSC-PEG-T ([1]; 72 h storage in saline with 5% EtOH and 1 mg mL^-1 sodium ascorbate, 7.4 MBq mL^-1, regardless of PSC-PEG-T precursor concentration (1 and 5 µM), n = 2): More than 99%

SMILES: C[C@@H](O)[C@@H]1NC(=O)[C@H](CCCCN)NC(=O)[C@@H](Cc2c[nH]c3ccccc23)NC(=O)[C@H](Cc2ccc(O)cc2)NC(=O)[C@@H](NC(=O)[C@@H](Cc2ccccc2)NC(=O)CCOCCOCCNC(=O)CN2CCN(CC(=O)O)CCN(CC(N)=O)CCN(CC(=O)O)CC2)CSSC[C@@H](C(=O)N[C@H](CO)[C@@H](C)O)NC1=O [[^203Pb]Pb-PSC-PEG-T, metal not drawn]
- tissue uptake at 24 h (in vivo; activity in lungs): 0.6 %ID/g
- tissue uptake dose at 3 h (in vivo; kidneys uptake (SPECT ROI)): 8.3 %ID
- tissue uptake dose at 24 h (in vivo; kidneys uptake (SPECT ROI)): 0.8 %ID
- tissue uptake dose at 3 h (in vivo; tumor uptake (SPECT ROI)): 1.8 %ID
- tissue uptake dose at 24 h (in vivo; tumor uptake (SPECT ROI)): 1.5 %ID

SMILES: C[C@@H](O)[C@@H]1NC(=O)[C@H](CCCCN)NC(=O)[C@@H](Cc2c[nH]c3ccccc23)NC(=O)[C@H](Cc2ccc(O)cc2)NC(=O)[C@@H](NC(=O)[C@@H](Cc2ccccc2)NC(=O)CCOCCOCCNC(=O)CN2CCN(CC(=O)O)CCN(CC(N)=O)CCN(CC(=O)O)CC2)CSSC[C@@H](C(=O)N[C@H](CO)[C@@H](C)O)NC1=O [[^212Bi]Bi-PSC-PEG-T, metal not drawn]
- tissue uptake at 1 h (in vivo; accumulation in bones): 2.5 %ID/g
- tissue uptake at 1 h (in vivo; accumulation in kidneys): 38.1 %ID/g

SMILES: C[C@@H](O)[C@@H]1NC(=O)[C@H](CCCCN)NC(=O)[C@@H](Cc2c[nH]c3ccccc23)NC(=O)[C@H](Cc2ccc(O)cc2)NC(=O)[C@@H](NC(=O)[C@@H](Cc2ccccc2)NC(=O)CCOCCOCCNC(=O)CN2CCN(CC(=O)O)CCN(CC(N)=O)CCN(CC(=O)O)CC2)CSSC[C@@H](C(=O)N[C@H](CO)[C@@H](C)O)NC1=O [[^212Pb]Pb-PSC-PEG-T, metal not drawn]
- tissue uptake at 1 h [3, 6]: 47.1 ± 7.9 %ID/g
- tissue uptake at 5 h [3, 6]: 26.6 %ID/g
- tissue uptake at 1 h [3, 7]: 5.2 %ID/g
- tissue uptake at 5 h [3, 7]: 2 %ID/g
- tissue uptake at 1 h ([3]; total radioactivity, activity remained in blood): < 0.2 %ID/g
- tissue uptake at 24 h ([3]; total radioactivity, residual activity in kidneys): 2.7 ± 1.2 %ID/g

Source: paper PMC9966725, “Preclinical Evaluation of a Lead Specific Chelator (PSC) Conjugated to Radiopeptides for ^203Pb and ^212Pb-Based Theranostics” (Pharmaceutics, 2023)
